Molecular target: T1, PUF4 RNA-binding domain (Saccharomyces cerevisiae, UniProt P25339 537-888)
T1 sequence: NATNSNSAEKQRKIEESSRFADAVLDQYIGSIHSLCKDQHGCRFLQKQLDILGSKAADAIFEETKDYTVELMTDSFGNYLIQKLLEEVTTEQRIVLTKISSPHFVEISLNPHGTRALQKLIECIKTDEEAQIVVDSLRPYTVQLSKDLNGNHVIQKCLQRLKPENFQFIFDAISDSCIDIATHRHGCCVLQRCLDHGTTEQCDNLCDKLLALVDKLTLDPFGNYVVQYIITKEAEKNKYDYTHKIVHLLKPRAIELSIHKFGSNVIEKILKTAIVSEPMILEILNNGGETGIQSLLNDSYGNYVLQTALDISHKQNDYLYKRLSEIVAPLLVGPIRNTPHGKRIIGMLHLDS
Test: Mg; RNA-MaP; 20 mM Na-HEPES pH 7.4, 30 mM KOAc, 0.75 mM MgCl2, 0.1% Tween-20, 5% glycerol, 0.1 mg/mL BSA, 2 mM DTT; 25 C; 0.0125-409.6 nM protein
Details: tags: N-His6-TEV cleaved; C-SNAP kept, Cy3B-labelled; label: tethered on chip by stalled RNA polymerase

## UCUCUUUAACACUAUUAUUUCUCUU (ssRNA) [Id_ii_S1_P4E.4_K4.3_C4.2_[C-2T]_[T-1A]_H4.3_A4.1_F4.1_T4.2_[G10T]]
  Kd: > 2300 nM

## UCUCUUUAACACUAUUAGCUCUCUU (ssRNA) [Id_ii_S1_P4E.4_K4.3_C4.2_[C-2T]_[T-1A]_H4.3_A4.1_F4.1_T4.2_[T11C]]
  Kd: > 2300 nM

## UCUCUUUAACACUAUUAGUUCUCUU (ssRNA) [Id_ii_S1_P4E.4_K4.3_C4.2_[C-2T]_[T-1A]_H4.3_A4.1_F4.1_T4.2]
  Kd: > 2300 nM

## UCUCUUUUACACUAUUACGUCUCUU (ssRNA) [Id_ii_S1_P4E.4_K4.3_C4.2_[C-2T]_H4.3_A4.1_F4.1_T4.2_[G10C]_[T11G]]
  Kd: 1680 nM

## UCUCUUUUACACUAUUACCUCUCUU (ssRNA) [Id_ii_S1_P4E.4_K4.3_C4.2_[C-2T]_H4.3_A4.1_F4.1_T4.2_[G10C]_[T11C]]
  Kd: 1320 nM

## UCUCUUUUACACUAUUACUUCUCUU (ssRNA) [Id_ii_S1_P4E.4_K4.3_C4.2_[C-2T]_H4.3_A4.1_F4.1_T4.2_[G10C]]
  Kd: 1160 nM

## UCUCUUUUACACUAUUAUCUCUCUU (ssRNA) [Id_ii_S1_P4E.4_K4.3_C4.2_[C-2T]_H4.3_A4.1_F4.1_T4.2_[G10T]_[T11C]]
  Kd: 1280 nM

## UCUCUUUGUAGUUUAUCUCUU (ssRNA) [Ic_S1_P4E.1_K4.1_C4.1_H4.1_A4.1_[T5G]_[A6T]_F4.1_T4.1]
  Kd: 18.5 nM

## UCUCUUUUACACUAUUAUAUCUCUU (ssRNA) [Id_ii_S1_P4E.4_K4.3_C4.2_[C-2T]_H4.3_A4.1_F4.1_T4.2_[G10T]_[T11A]]
  Kd: 944 nM

## UCUCUUUUACACUAUUAUUUCUCUU (ssRNA) [Id_ii_S1_P4E.4_K4.3_C4.2_[C-2T]_H4.3_A4.1_F4.1_T4.2_[G10T]]
  Kd: 1130 nM

## UCUCUUUUACACUAUUAACUCUCUU (ssRNA) [Id_ii_S1_P4E.4_K4.3_C4.2_[C-2T]_H4.3_A4.1_F4.1_T4.2_[G10A]_[T11C]]
  Kd: 977 nM

## UCUCUUUUACACUAUUAAUUCUCUU (ssRNA) [Id_ii_S1_P4E.4_K4.3_C4.2_[C-2T]_H4.3_A4.1_F4.1_T4.2_[G10A]]
  Kd: 1120 nM

## UCUCUUUUACACUAUUAGCUCUCUU (ssRNA) [Id_ii_S1_P4E.4_K4.3_C4.2_[C-2T]_H4.3_A4.1_F4.1_T4.2_[T11C]]
  Kd: 1600 nM

## UCUCUUUUACACUAUUAGUUCUCUU (ssRNA) [Id_ii_S1_P4E.4_K4.3_C4.2_[C-2T]_H4.3_A4.1_F4.1_T4.2]
  Kd: 1370 nM

## UCUCUUAGACACUAUUACAUCUCUU (ssRNA) [Id_ii_S1_P4E.4_K4.3_C4.2_[C-2A]_[T-1G]_H4.3_A4.1_F4.1_T4.2_[G10C]_[T11A]]
  Kd: > 2300 nM

## UCUCUUAGACACUAUUAACUCUCUU (ssRNA) [Id_ii_S1_P4E.4_K4.3_C4.2_[C-2A]_[T-1G]_H4.3_A4.1_F4.1_T4.2_[G10A]_[T11C]]
  Kd: > 2300 nM

## UCUCUUAGACACUAUUAAUUCUCUU (ssRNA) [Id_ii_S1_P4E.4_K4.3_C4.2_[C-2A]_[T-1G]_H4.3_A4.1_F4.1_T4.2_[G10A]]
  Kd: > 2300 nM

## UCUCUUACACACUAUUACGUCUCUU (ssRNA) [Id_ii_S1_P4E.4_K4.3_C4.2_[C-2A]_[T-1C]_H4.3_A4.1_F4.1_T4.2_[G10C]_[T11G]]
  Kd: > 2300 nM

## UCUCUUUGUACGUUAUCUCUU (ssRNA) [Ic_S1_P4E.1_K4.1_C4.1_H4.1_A4.1_[T5C]_[A6G]_F4.1_T4.1]
  Kd: 4.05 nM

## UCUCUUACACACUAUUACCUCUCUU (ssRNA) [Id_ii_S1_P4E.4_K4.3_C4.2_[C-2A]_[T-1C]_H4.3_A4.1_F4.1_T4.2_[G10C]_[T11C]]
  Kd: > 2300 nM

## UCUCUUACACACUAUUACUUCUCUU (ssRNA) [Id_ii_S1_P4E.4_K4.3_C4.2_[C-2A]_[T-1C]_H4.3_A4.1_F4.1_T4.2_[G10C]]
  Kd: > 2300 nM

## UCUCUUACACACUAUUAACUCUCUU (ssRNA) [Id_ii_S1_P4E.4_K4.3_C4.2_[C-2A]_[T-1C]_H4.3_A4.1_F4.1_T4.2_[G10A]_[T11C]]
  Kd: > 2300 nM

## UCUCUUACACACUAUUAGCUCUCUU (ssRNA) [Id_ii_S1_P4E.4_K4.3_C4.2_[C-2A]_[T-1C]_H4.3_A4.1_F4.1_T4.2_[T11C]]
  Kd: > 2300 nM

## UCUCUUAAACACUAUUACCUCUCUU (ssRNA) [Id_ii_S1_P4E.4_K4.3_C4.2_[C-2A]_[T-1A]_H4.3_A4.1_F4.1_T4.2_[G10C]_[T11C]]
  Kd: > 2300 nM

## UCUCUUAAACACUAUUAUCUCUCUU (ssRNA) [Id_ii_S1_P4E.4_K4.3_C4.2_[C-2A]_[T-1A]_H4.3_A4.1_F4.1_T4.2_[G10T]_[T11C]]
  Kd: > 2300 nM

## UCUCUUAAACACUAUUAUAUCUCUU (ssRNA) [Id_ii_S1_P4E.4_K4.3_C4.2_[C-2A]_[T-1A]_H4.3_A4.1_F4.1_T4.2_[G10T]_[T11A]]
  Kd: > 2300 nM

## UCUCUUAAACACUAUUAUUUCUCUU (ssRNA) [Id_ii_S1_P4E.4_K4.3_C4.2_[C-2A]_[T-1A]_H4.3_A4.1_F4.1_T4.2_[G10T]]
  Kd: > 2300 nM

## UCUCUUAAACACUAUUAAAUCUCUU (ssRNA) [Id_ii_S1_P4E.4_K4.3_C4.2_[C-2A]_[T-1A]_H4.3_A4.1_F4.1_T4.2_[G10A]_[T11A]]
  Kd: > 2300 nM

## UCUCUUAAACACUAUUAGCUCUCUU (ssRNA) [Id_ii_S1_P4E.4_K4.3_C4.2_[C-2A]_[T-1A]_H4.3_A4.1_F4.1_T4.2_[T11C]]
  Kd: > 2300 nM

## UCUCUUUGUACCUUAUCUCUU (ssRNA) [Ib_S1_P4E.1_K4.1_C4.1_H4.1_A4.1_[T5C]_[A6C]_F4.1_T4.1]
  Kd: 3.61 nM

## UCUCUUAUACACUAUUACGUCUCUU (ssRNA) [Id_ii_S1_P4E.4_K4.3_C4.2_[C-2A]_H4.3_A4.1_F4.1_T4.2_[G10C]_[T11G]]
  Kd: 32.1 nM

— PMC9352680, “A comprehensive thermodynamic model for RNA binding by the Saccharomyces cerevisiae Pumilio protein PUF4”
